Experiment [1] has as its target Rabbit skeletal muscle actin (rabbit, UniProt P68135 1-377). Kind of experiment: inhibition of actin polymerization by profilin.
Experiment [2] deals with Acanthamoeba actin (Acanthamoeba).
For experiment [3] the target is unchanged. Description: critical concentration of actin polymerization at steady state.

Values joined by “and” are separate entries in the source; they are usually repeats but may differ in a detail not shown here. Identical values can stand only once. Like-named read-outs stand apart in the source and are kept apart here. A value given as a limit tells only on which side of the number the result lay.

B1: Acanthamoeba profilin (natural protein)
chain: SWQTYVDTNLVGTGAVTQAAILGLDGNTWATSAGFAVTPAQGQTLASAFNNADPIRASGFDLAGVHYVTLRADDRSIYGKKGSAGVITVKTSKSILVGVYNEKIQPGTAANVVEKLADYLIGQGF
Regarding B1, the Kd in experiment [1] was above 30 µM; in the experiment with Acanthamoeba actin [2] it was 4 µM and 3.1 µM and 3.7 µM; with Acanthamoeba actin [3] it was 0.9 µM and 1.4 µM and 1.3 µM.

The Kd is the concentration at which binding is half-saturated.

For the origin of these results see paper PMC2112199 (The Journal of Cell Biology, 1982).
